Reference: PMC3156789 (Biochemistry, 2011)

Columns and labels:
[1] = aqueous solution; size exclusion chromatography and sedimentation velocity; ref [24]; cited from earlier work
CHK = format: biochemical; settings: in vitro
c-Src = settings: read-out: dissociation constant (KD) of the CSK/c-Src complex; surface plasmon resonance; ref [9] Levinson et al.; cited from earlier work

B1: CHK-His6: GSGS linker and a polyhistidine tag attached to the C-terminus of the rat CHK sequence (protein)
chain: MPTQRWAPGTQCMTKCENSRPKPGELAFRKGDMVTILEACEDKSWYRAKHHSSGQEGLLAAAALRQREALSTDPKLSLMPWFHGKISGQEAIQQLQPPEDGLFLVRESARHPGDYVLCVSFGRDVIHYRVLHRDGHLTIDEAVCFCNLMDMVEHYTRDKGAICTKLVKPKRKQGAKSAEEELAKAGWLLDLQHLTLGAQIGEGEFGAVLQGEYLGQKVAVKNIKCDVTAQAFLDETAVMTKLQHRNLVRLLGVILHHGLYIVMEHVSKGNLVNFLRTRGRALVSTSQLLQFALHVAEGMEYLESKKLVHRDLAARNILVSEDLVAKVSDFGLAKAELRKGLDSSRLPVKWTAPEALKNGRFSSKSDVWSFGVLLWEVFSYGRAPYPKMSLKEVSEAVEKGYRMEPPDSCPGPVHTLMGSCWEAEPSRRPPFRKIVEKLGRELRSVGVAAPAGGQEAEGSAPTRSQDP
modifications: left off: … (GSGS linker and polyhistidine tag), C-terminal, kept
For B1, the oligomeric state [1] is given as “monomeric in aqueous solution”.

B2: 14-3-3β: recombinant 14-3-3β (protein, UniProt P31946 1-246, looked up)
14-3-3 protein beta/alpha: MTMDKSELVQKAKLAEQAERYDDMAAAMKAVTEQGHELSNEERNLLSVAYKNVVGARRSSWRVISSIEQKTERNEKKQQMGKEYREKIEAELQDICNDVLELLDKYLIPNATQPESKVFYLKMKGDYFRYLSEVASGDNKQTTVSNSQQAYQEAFEISKKEMQPTHPIRLGLALNFSVFYYEILNSPEKACSLAKTAFDEAIAELDTLNEESYKDSTLIMQLLRDNLTLWTSENQGDEGDAGEGEN
In the case of B2, the “level of CHK phosphorylation” value (CHK; purified recombinant proteins) is reported as “negligible level” and the “direct phosphorylation by CHK” value (CHK; purified recombinant proteins (SFig. 4A)) is reported as “CHK could directly phosphorylate all three protein substrates in vitro”.

B3: CSK: C-terminal Src kinase (protein, UniProt P41240 2-450, looked up)
Tyrosine-protein kinase CSK: SAIQAAWPSGTECIAKYNFHGTAEQDLPFCKGDVLTIVAVTKDPNWYKAKNKVGREGIIPANYVQKREGVKAGTKLSLMPWFHGKITREQAERLLYPPETGLFLVRESTNYPGDYTLCVSCDGKVEHYRIMYHASKLSIDEEVYFENLMQLVEHYTSDADGLCTRLIKPKVMEGTVAAQDEFYRSGWALNMKELKLLQTIGKGEFGDVMLGDYRGNKVAVKCIKNDATAQAFLAEASVMTQLRHSNLVQLLGVIVEEKGGLYIVTEYMAKGSLVDYLRSRGRSVLGGDCLLKFSLDVCEAMEYLEGNNFVHRDLAARNVLVSEDNVAKVSDFGLTKEASSTQDTGKLPVKWTAPEALREKKFSTKSDVWSFGILLWEIYSFGRVPYPRIPLKDVVPRVEKGYKMDAPDGCPPAVYEVMKNCWHLDAAMRPSFLQLREQLEHIKTHELHL
In the case of B3, the Kd (c-Src) is given as 4 to 64 µM.
